From publication PMC7337494 (The Journal of Cell Biology, 2020)

Target: the molecule itself
Test: AUC

B1: 217-MGD (extended OPA1-MGD, residues 217–580 and 938–960 connected by the artificial linker) (domain or fragment)
chain: not shown
With B1 as the protein, how does the “stoichiometry N” value read?
Its value is 2.
